In patent US20170129961A1 (Amgen, published 2017):

Tests used:
[1] = molecular target: T1, full-length mouse CD70 with C-terminal V5 tag (mouse, UniProt O55237 1-195); assay: FACS on CHO cells, periplasmic scFv
T1 construct: On transfected CHO cells; also called murine CD70
T1 sequence: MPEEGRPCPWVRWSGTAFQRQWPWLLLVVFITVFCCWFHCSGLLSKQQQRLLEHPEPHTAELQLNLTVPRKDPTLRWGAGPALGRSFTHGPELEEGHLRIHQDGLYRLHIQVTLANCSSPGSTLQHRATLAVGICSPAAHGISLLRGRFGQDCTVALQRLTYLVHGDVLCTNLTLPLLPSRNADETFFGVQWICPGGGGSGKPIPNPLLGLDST
Experimental: (§1) All antibodies were diluted in PBS/1.5% FCS. As negative control, cells were incubated with PBS/2% FCS instead of the periplasmic extract. The samples were measured by flow cytometry.

human CD70 = molecular target: T2, human CD70 (human, UniProt P32970 1-193); assay: FACS on CHO cells, periplasmic scFv
T2 construct: also called hu CD70; CD27L
T2 sequence: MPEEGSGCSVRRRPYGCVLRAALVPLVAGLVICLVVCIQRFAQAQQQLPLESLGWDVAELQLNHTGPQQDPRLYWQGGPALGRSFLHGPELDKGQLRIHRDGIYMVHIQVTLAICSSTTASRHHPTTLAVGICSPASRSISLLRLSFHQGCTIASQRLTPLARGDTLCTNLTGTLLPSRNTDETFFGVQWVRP
Experimental: as §1

Binder | binding result [1] | binding result (human CD70)
CD70-12 (scFv, As m32) scFv: QAQLVESGGGVVQPGRSLRLSCAASGFTFSYYGMHWVRQAPGKCLEWVAVIWYDGSNKYYADSVKGRFTISRDNSKNTLYLQMNSLRAEDTAVYYCARDREMGSRGDFDYWGQGTLVTVSSGGGGSGGGGSGGGGSDIQMTQSPSSLSASVGDRVTITCRASQGINNYLAWFQQKPGKAPKSLIYAVSILQSGVPSKFSGSGSGTDFTLTIGNLQPEDFATYYCQQYNFYPFSFGCGTKVDIK | no binding | binds
CD70-14 (scFv, As m32) scFv: EVQLLESGGGLVQPGGSLKLSCAASGFTFSIYAMSWVRQAPGKGLEWVSAISGSGGSTFYADSVKGRFTISRDNSKNTLYLQMNSLRAEDTAVYYCAKHDYSNYPYFDYWGQGTLVTVSSGGGGSGGGGSGGGGSEIVLTQSPGTLSLSPGERATLSCRASQSVRSSYLAWYQQKPGQAPRLLIYGASSRATGIPDRFSGSGSGTDFTLTISRLEPEDFAVYYCQQYGDLPFTFGPGTKLEIK | no binding | binds
CD70-2 (scFv) scFv: QVQLVESGGGVVQPGRSLRLSCAASGFTFSSYGMHWVRQAPGKGLEWVAVIWYDGSDKYFADSVKGRFTISRDNSKNTLYLQMNSLRAEDTAVYYCARDGIAGARYVYFDYWGQGTLVTVSSGGGGSGGGGSGGGGSDIQMTQSPSSLSASVGDRVTITCRASQGISNYLAWFQQKPGKAPKSLIYAASSLQGGVPSKFSGSGSGTDFTLTISSLQPEDFATYYCQQYYNYPFTFGPGTTVDIK | no binding | binds
CD70-8 (scFv) scFv: QVQLVESGGGVVQPGRSLRLSCAASGFTFSSYGMHWVRQAPGKCLEWVAVIWYDGSDKYFADSVKGRFTISRDNSKNTLYLQMNSLRAEDTAVYYCARDGIAGARYVYFDYWGQGTLVTVSSGGGGSGGGGSGGGGSDIQMTQSPSSLSASVGDRVTITCRASQGISNYLAWFQQKPGKAPKSLIYAASSLQGGVPSKFSGSGSGTDFTLTISSLQPEDFATYYCQQYYNYPFTFGCGTTVDIK | no binding | binds
CD70-4 (scFv, As m32) scFv: QVQLVQSGAEVKKPGASVKVSCKASGYTFTSYGISWVRQAPGQGLEWMGWISAYNGYTHYAQKLQGRVTMTTDTSTSTAYMELRSLRSDDTAVYYCARDYGGNDYYGMDVWGQGTTVTVSSGGGGSGGGGSGGGGSQSVLTQPPSASGTPGQRVTISCSGSSSNIGINYVYWYQQLPGTAPKLLIYRSDQRPSGVPDRFSGSKSGTSASLALSGLRSEDEADYYCAAWDDSLSGVVFGGGTKLTVL | no binding | binds
CD70-9 (scFv, As m32) scFv: QVQLVQSGAEVKKPGASVKVSCKASGYTFTSYGISWVRQAPGQCLEWMGWISAYNGYTHYAQKLQGRVTMTTDTSTSTAYMELRSLRSDDTAVYYCARDYGGNDYYGMDVWGQGTTVTVSSGGGGSGGGGSGGGGSQSVLTQPPSASGTPGQRVTISCSGSSSNIGINYVYWYQQLPGTAPKLLIYRSDQRPSGVPDRFSGSKSGTSASLALSGLRSEDEADYYCAAWDDSLSGVVFGCGTKLTVL | no binding | binds
CD70-11 (scFv, As m32) scFv: QVQLVESGGGVVQPGRSLRLSCAASGFTFSTYGMHWVRQAPGKCLEWVAVIWYDGSNKYYGDSVKGRFTISRDNSKNTLYLQMNSLRAEDTAVYYCARDNSHYYYGMDVWGQGTTVTVSSGGGGSGGGGSGGGGSQSVLTQPPSVSGAPGQRVTISCTGSSSNIGAGYDVNWYQQFPGTAPKLLIYVNNNRPSGVPDRFSGSTSGTSASLAITGLQAEDEADYYCQSYETSLSASVFGCGTRLTVL | no binding | binds
CD70-3 (scFv, As m32) scFv: QEQLVESGGGVVQPGRSLRLSCAASGFTFSSYGMHWVRQAPGKGLEWVAVTWYDGSNKYYGDSVKGRFTISRDNSKNTLYLQMNSLRAEDTAVYYCARDLLRGVKGYAMDVWGQGTTVTVSSGGGGSGGGGSGGGGSEIVLTQSPGTLSLSPGERATLSCRASQSLRRIYLAWYQQKPGQAPRLLIYDVFDRATGIPDRFSGGGSGTDFTLTISRLEPEDFAVYYCQQYSDSPFTFGPGTKVDIK | no binding | binds
CD70-13 (scFv) scFv: EVQLLESGGGLVQPGGSLRLSCAASGFTFSSYAMSWVRQAPGKGLEWVSVISGSGGRPNYADSVKGRFTISRDNSKNTLYLQMNSLRDEDTAVYYCAKVDYSNYLFFDYWGQGTLVTVSSGGGGSGGGGSGGGGSEIVLTQSPGTLSLSPGEGATLSCRAGQSVRSSYLGWYQQKPGQAPRLLIYGASSRATGIPDRFSGSGSGTDFTLTISRLEPEDFAVYYCQQYGYSPPTFGGGTKLEIK | no binding | binds
CD70-1 (scFv) scFv: QVQLVESGGGVVQPGRSLRLSCAASGFTFSTYGMHWVRQAPGKGLEWVAVIWYDGSNKYYGDSVKGRFTISRDNSKNTLYLQMNSLRAEDTAVYYCARDNSHYYYGMDVWGQGTTVTVSSGGGGSGGGGSGGGGSQSVLTQPPSVSGAPGQRVTISCTGSSSNIGAGYDVNWYQQFPGTAPKLLIYVNNNRPSGVPDRFSGSTSGTSASLAITGLQAEDEADYYCQSYDTSLSASVFGGGTRLTVLS | no binding | binds
CD70-10 (scFv, As m32) scFv: QVQLQESGPGLVKPSQTLSLTCTVSGDSIISGGYYWSWIRQHPGKCLEWIGYIFYSGSTDYNPSLKSRVTISVDTSKNQFSLKLSSVTAADTAVYYCARSGYSYALFDHWGQGTLVTVSSGGGGSGGGGSGGGGSDIQMTQSPSSLSASVGDRVTISCRASQFIGRYFNWYQQQPGKAPKVLIYAESSLQSGVPSRFSGSGSGTEFTLTISSLQPEDFARYYCQQSYSTPWTFGCGTKVEIK | no binding | binds
CD70-6 (scFv, As m32) scFv: QVQLQESGPGLVKPSQTLSLTCTVSGDSIISGGYYWSWIRQHPGKCLEWIGYIFYSGSTDYNPSLKSRVTISVDTSKNQFSLKLSSVTAADTAVYYCARSGYSYALFDHWGQGTLVTVSSGGGGSGGGGSGGGGSDIQMTQSPSSLSASVGDRVTISCRASQFIGRYFNWYQQQPGKAPKVLIYAESSLQSGVPSRFSGSGSGTEFTLTISSLQPEDFARYYCQQSYSTPFTFGCGTKVEIK | no binding | binds
CD70-5 (scFv, As m32) scFv: QVQLQESGPGLVKPSQTLSLTCTVSGDSIISGGYYWSWIRQHPGKGLEWIGYIFYSGSTDYNPSLKSRVTISVDTSKNQFSLKLSSVTAADTAVYYCARSGYSYALFDHWGQGTLVTVSSGGGGSGGGGSGGGGSDIQMTQSPSSLSASVGDRVTISCRASQFIGRYFNWYQQQPGKAPKVLIYAESSLQSGVPSRFSGSGSGTEFTLTISSLQPEDFARYYCQQSYSTPWTFGQGTKVEIK | no binding | binds
CD70-7 (scFv, As m32) scFv: QVHLVQSGAEVKKPGASVRVSCKASGYTFTSYYLHWVRQAPGQCLEWMGIVDPSGGSTSYDQKFQGRFTMTRDTSTSTVYMELSSLRSEDTAVYYCARDYGDYVFDYWGQGTLVTVSSGGGGSGGGGSGGGGSQSVLTQPPSASGTPGQRVTISCSGSSSNIGTNTVNWYQQLPGTAPQLLIYINNQRPSGVPDRFSGSKSGTSASLAISGLQSEDEADYYCATWDDSLNGPVVGCGTKLTVL | no binding | binds
